Consider two molecules from US20120321619A1 (Bayer, published 2012).

Test [1] deals with T1, murine C4.4a on transfected CHO-S:mC4.4a cells (mouse, UniProt Q91YK8 33-343).
T1 construct: full length GPI-anchored form, stably transfected; also called Mouse C4.4a:CHO; mC4.4a: CHO
T1 sequence: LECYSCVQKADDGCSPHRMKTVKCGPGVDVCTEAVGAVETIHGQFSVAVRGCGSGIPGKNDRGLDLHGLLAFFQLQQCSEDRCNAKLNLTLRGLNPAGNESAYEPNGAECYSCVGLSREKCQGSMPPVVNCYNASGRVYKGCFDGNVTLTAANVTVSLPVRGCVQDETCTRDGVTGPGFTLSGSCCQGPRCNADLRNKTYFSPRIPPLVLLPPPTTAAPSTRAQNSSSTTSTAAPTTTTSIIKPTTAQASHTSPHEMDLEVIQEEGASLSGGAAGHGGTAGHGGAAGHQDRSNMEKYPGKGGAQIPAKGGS
Kind of test: FACS titration of IgG1 on CHO-S:mC4.4a cells.

Test [2] deals with T2, human C4.4a natively expressed on tumor cell lines (human, UniProt O95274 31-326).
T2 construct: whole, on cells; also called NCI H292; NCI H322
T2 sequence (looked up): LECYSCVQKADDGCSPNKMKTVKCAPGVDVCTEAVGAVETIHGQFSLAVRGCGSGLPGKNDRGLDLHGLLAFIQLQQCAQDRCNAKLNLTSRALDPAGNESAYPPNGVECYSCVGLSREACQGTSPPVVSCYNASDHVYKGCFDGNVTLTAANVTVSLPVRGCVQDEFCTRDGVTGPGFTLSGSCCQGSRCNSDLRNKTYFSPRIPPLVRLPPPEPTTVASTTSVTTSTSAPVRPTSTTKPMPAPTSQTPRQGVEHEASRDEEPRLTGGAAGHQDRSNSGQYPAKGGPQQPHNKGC
Briefly: FACS titration on NCI H322 cells (native C4.4a), IgG1 format, phycoerythrin-labelled goat anti-human IgG detection. Here is the method:
(§1) FACS titration was performed in a 96 well microtiter plate, in which serial dilutions of the primary antibody in a volume of 50 W of FACS buffer (3% FCS, in PBS) were mixed with 50 μl of a cell suspension consisting of 2×10^5 cells/ml which had been detached with Cell Dissociation Solution (1×) Non-enzymatic (Sigma), and resuspended in FACS buffer. Incubation was performed at 4° C. for 1 hour with agitation. Cells were pelleted, washed with FACS buffer and resuspended in 100 μl/well of Phycoerythrin labeled goat anti human IgG (Dianova) solution in FACS buffer. Incubation and washing was performed as before. Analysis of cell-bound antibodies was done at the respective detection wavelength using the FACS Array device. EC₅₀ values were determined from fluorescence medians of duplicates using Swift 8.0 software.

The target in test [3] is T3, human C4.4a on transfected A549:hC4.4a cells (human, UniProt O95274 31-326).
T3 sequence: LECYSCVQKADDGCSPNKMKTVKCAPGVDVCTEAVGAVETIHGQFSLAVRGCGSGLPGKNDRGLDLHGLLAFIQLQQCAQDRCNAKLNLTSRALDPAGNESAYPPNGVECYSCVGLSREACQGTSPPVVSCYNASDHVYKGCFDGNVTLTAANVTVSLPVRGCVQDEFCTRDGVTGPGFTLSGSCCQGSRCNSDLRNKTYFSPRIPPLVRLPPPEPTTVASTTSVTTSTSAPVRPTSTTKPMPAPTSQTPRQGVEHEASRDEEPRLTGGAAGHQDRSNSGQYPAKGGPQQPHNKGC
Briefly: cell-based or functional assay.

For test [4], the target named is T2, human C4.4a natively expressed on tumor …. Briefly: FACS titration on H1975/BCRP cells (native C4.4a), IgG1 format, phycoerythrin-labelled goat anti-human IgG detection. The protocol:
as §1

The target is the same in test [5]. Briefly: FACS titration of IgG1 on NCI H292 cells. Here is the method:
as §1

Test [6] has the same target. Briefly: FACS titration on BxPC3 cells (native C4.4a), IgG1 format, phycoerythrin-labelled goat anti-human IgG detection. The protocol: as §1
Test [7] concerns the target T3, human C4.4a on transfected A549:hC4.4a …. Kind of test: FACS titration on transfected A549:hC4.4a cells (printed 'A549:C4.4a'), IgG1 format, phycoerythrin-labelled goat anti-human IgG detection. The protocol:
as §1

Test [8] has as its target T4, recombinant soluble human C4.4a (human, UniProt O95274 31-308).
T4 construct: recombinant, soluble, purified protein; also called hC4.4a; full length C4.4a
T4 sequence: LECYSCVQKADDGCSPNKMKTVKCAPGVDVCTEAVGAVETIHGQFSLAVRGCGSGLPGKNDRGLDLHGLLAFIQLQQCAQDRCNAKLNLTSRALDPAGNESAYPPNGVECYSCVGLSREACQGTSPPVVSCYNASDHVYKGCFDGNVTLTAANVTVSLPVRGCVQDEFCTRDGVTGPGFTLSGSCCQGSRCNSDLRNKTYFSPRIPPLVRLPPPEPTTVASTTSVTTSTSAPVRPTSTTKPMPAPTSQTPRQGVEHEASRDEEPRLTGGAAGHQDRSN
Briefly: ELISA, IgG1 on coated recombinant human C4.4a. Here is the method:
(§2) FIG. 2 depicts binding curves of anti-C4.4 antibody M31-B01 and M20 D02 S-A on recombinant human C4.4a (A) and murine C4.4a (B) respectively. Briefly, 96-well MTP were coated for 16 h at 4° C. with recombinant human or mouse C4.4a (100 ng/well plates were washed 3 times with PBS/0.05% Tween 20 (=buffer B) treated with blocking reagent (PBS+2% BSA), and washed again 3 times with buffer B. After that anti C4.4a antibodies of the invention were added in concentrations of 0.39 ng to 400 ng/per well and incubated for one hour at 20° C. After washing 3 times with buffer B, 20 ng of Protein A were added in 100 μl buffer B to each well. Color reaction was developed by addition of 50 W 3,3′,5,5′-Tetramethylbenzidine (TMB) (Sigma). Data for EC₅₀ determination were recorded after 18 min by measuring extinction […] a Tecan infinite plate reader. EC₅₀ values for M31-B01 were 0.24 and 0.29 nM on human and murine C4.4a, respectively. And for M20-D02 S-A EC₅₀ values were 0.3 and 0.38 nM on human and murine C4.4a, respectively. This indicates high affinity binding of anti C4.4a antibodies of the invention to both human and murine soluble recombinant C4.4a.

The target of test [9] is T5, recombinant soluble murine C4.4a (mouse, UniProt Q91YK8 33-343, limits assumed).
T5 construct: also called mouse C4.4a; mC4.4a
T5 sequence (looked up): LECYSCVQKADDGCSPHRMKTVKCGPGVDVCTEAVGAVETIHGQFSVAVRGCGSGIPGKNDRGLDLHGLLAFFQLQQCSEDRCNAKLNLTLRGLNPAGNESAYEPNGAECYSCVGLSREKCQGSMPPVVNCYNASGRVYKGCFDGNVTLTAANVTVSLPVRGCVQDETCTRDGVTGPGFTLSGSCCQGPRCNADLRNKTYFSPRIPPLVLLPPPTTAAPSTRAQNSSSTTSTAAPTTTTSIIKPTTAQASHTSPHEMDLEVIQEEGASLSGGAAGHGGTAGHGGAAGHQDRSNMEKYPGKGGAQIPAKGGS
Kind of test: ELISA, IgG1 on coated recombinant murine C4.4a. Here is the method: as §2
Background: In an ELISA, binding on a coated surface is turned into a signal by an enzyme label.

B1: M31-B01 (antibody, human IgG1, V domains shown)
VH: EVQLLESGGGLVQPGGSLRLSCAASGFTFSNAWMSWVRQAPGKGLEWVSYISSSGSTIYYADSVKGRFTISRDNSKNTLYLQMNSLRAEDTAVYYCAREGLWAFDYWGQGTLVTVTS
VL: QSVLTQPPSASGTPGQRVTISCTGSSSNIGAGYVVHWYQQLPGTAPKLLIYDNNKRPSGVPDRFSGSKSGTSASLAISGLRSEDEADYYCAAWDDRLNGPVFGGGTKLTVLG
notes: tested as human IgG1
As usually defined, the EC50 is the midpoint of the concentration-response curve. B1: the half-maximal effective concentration (EC50) in test [1] came out at 1900 pM; in test [2], 300 pM; in test [4], 400 pM; in test [5] it was 300 pM; in test [6], 300 pM; in test [7], 1900 pM. Further, the EC50 stood at 240 pM in test [8] and 290 pM in test [9]. Moreover, in test [3], the “internalization t½ [min] into A549:hC4.4a cells (CypHer 5E labeled antibody)” value amounted to 49 min.

B2: M20-D02 S-A (antibody, human IgG1, V domains shown)
VH: EVQLLESGGGLVQPGGSLRLSCAASGFTFSDYQMTWIRQTPGKGLEWVSGVSWNGARTHYADSVKGRFTISRDNSKNTLYLQMNSLRAEDTAVYYCAKGDYLVYSAYYFDSWGQGTLVTVTS
VL: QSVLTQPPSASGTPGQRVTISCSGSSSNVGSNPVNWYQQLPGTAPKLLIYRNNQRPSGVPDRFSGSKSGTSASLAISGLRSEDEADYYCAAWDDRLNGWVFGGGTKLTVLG
notes: tested as human IgG1
In the case of B2, the EC50 in [1] was 1600 pM; in test [2], 1200 pM; in [4], 1300 pM; in [5], 1300 pM; in test [6], 1000 pM; in test [7] it was 4300 pM. Further, the EC50 worked out at 300 pM in test [8] and 380 pM in test [9]. The “internalization t½ [min] into A549:hC4.4a cells (CypHer 5E labeled antibody)” value in test [3] came to 60 min.
